Changes are numbered by the printed parent chain. In names and notes the source's numbering stands. Several values for one entry are separate records, joined by “and”; a condition that tells them apart may be missing. Identical values can stand only once.
B1: nylon hydrolase NylCp2 (wild type, Arthrobacter plasmid pOAD2-encoded NylC), active enzyme: alpha-beta heterodimer (enzyme)
chain 1: MNTTPVHALTDIDGGIAVDPAPRLAGPPVFGGPGNDAFDLAPVRSTGREMLRFDFPGVSIGAAHYEEGPTGATVIHIPAGARTAVDARGGAVGLSGGYDFNHAICLAGGAGYGLEAGAGVSDALLERLEHRTGFAELQLVSSAVIYDFSARSTAVYPDKALGRAALEFAVPGEFPQGRAGAGMSASAGKVDWDRTEITGQGAAFRRLGDVRILAVVVPNPVGVIVDRAGTVVRGNYDAQTGVRRHPVFDYQEAFAEQVPPVTEAGN
chain 2: TTISAIVTNVRMSPVELNQFAKQVHSSMHRGIQPFHTDMDGDTLFAVTTDEIDLPTTPGSSRGRLSVNATALGAIASEVMWDAVLEAGK
notes: NylCp2, alpha subunit (27 kDa) made by autocleavage of the 355-residue precursor between Asn266 and Thr267; NylCp2, beta subunit (9 kDa) made by autocleavage of the 355-residue precursor between Asn266 and Thr267; also called wild-type NylCp2; monomer molecule A-D; source: E. coli JM109, purified (ammonium sulfate fractionation, anion-exchange, gel filtration)
B2: NylCp2-G^122 mutant enzyme (D122G), alpha-beta heterodimer (enzyme, Arthrobacter)
chain 1: B1 chain 1 with D122G
chain 2: B1 chain 2
notes: NylCp2 alpha subunit with D122G; NylCp2 beta subunit; also called Gly122 enzyme; source: E. coli JM109, purified (ammonium sulfate fractionation, anion-exchange, gel filtration)
B3: NylCp2-K^122 mutant enzyme (D122K), alpha-beta heterodimer (enzyme, Arthrobacter)
chain 1: B1 chain 1 with D122K
chain 2: B1 chain 2
notes: NylCp2 alpha subunit with D122K; NylCp2 beta subunit; source: E. coli JM109, purified (ammonium sulfate fractionation, anion-exchange, gel filtration)
B4: NylCp2-G^122Y^130 mutant enzyme (D122G/H130Y), alpha-beta heterodimer (enzyme, Arthrobacter)
chain 1: B1 chain 1 with D122G, H130Y
chain 2: B1 chain 2
notes: NylCp2 alpha subunit with D122G and H130Y; NylCp2 beta subunit; also called NylC-G^122Y^130; source: E. coli JM109, purified (ammonium sulfate fractionation, anion-exchange, gel filtration)
B5: NylCp2-R^122 mutant enzyme (D122R), alpha-beta heterodimer (enzyme, Arthrobacter)
chain 1: B1 chain 1 with D122R
chain 2: B1 chain 2
notes: NylCp2 alpha subunit with D122R; NylCp2 beta subunit; source: E. coli JM109, purified (ammonium sulfate fractionation, anion-exchange, gel filtration)
B6: NylCp2-Y^130 mutant enzyme (H130Y), alpha-beta heterodimer (enzyme, Arthrobacter)
chain 1: B1 chain 1 with H130Y
chain 2: B1 chain 2
notes: NylCp2 alpha subunit with H130Y; NylCp2 beta subunit; source: E. coli JM109, purified (ammonium sulfate fractionation, anion-exchange, gel filtration)
B7: NylCp2-V^122 mutant enzyme (D122V), alpha-beta heterodimer (enzyme, Arthrobacter)
chain 1: B1 chain 1 with D122V
chain 2: B1 chain 2
notes: NylCp2 alpha subunit with D122V; NylCp2 beta subunit; source: E. coli JM109, purified (ammonium sulfate fractionation, anion-exchange, gel filtration)
B8: NylCp2-A^137 mutant (L137A), uncleaved precursor (enzyme, Arthrobacter, UniProt Q79F77 1-355, looked up)
chain: MNTTPVHALTDIDGGIAVDPAPRLAGPPVFGGPGNDAFDLAPVRSTGREMLRFDFPGVSIGAAHYEEGPTGATVIHIPAGARTAVDARGGAVGLSGGYDFNHAICLAGGAGYGLEAGAGVSDALLERLEHRTGFAEAQLVSSAVIYDFSARSTAVYPDKALGRAALEFAVPGEFPQGRAGAGMSASAGKVDWDRTEITGQGAAFRRLGDVRILAVVVPNPVGVIVDRAGTVVRGNYDAQTGVRRHPVFDYQEAFAEQVPPVTEAGNTTISAIVTNVRMSPVELNQFAKQVHSSMHRGIQPFHTDMDGDTLFAVTTDEIDLPTTPGSSRGRLSVNATALGAIASEVMWDAVLEAGK
notes: NylCp2 with L137A, obtained as the uncleaved precursor (36 kDa; 355 residues); source: E. coli JM109, purified (ammonium sulfate fractionation, anion-exchange, gel filtration)
B9: NylCp2-G^122A^137 mutant (D122G/L137A), mixture of precursor and alpha and beta subunits (enzyme, Arthrobacter, UniProt Q79F77 1-355, looked up)
chain: B8 chain with D122G
notes: NylCp2 with D122G and L137A; obtained as a mixture of the uncleaved precursor and the alpha (to N266) and beta (from T267) subunits; Written as the one-chain precursor; part of the sample was cleaved at Asn266/Thr267; source: E. coli JM109, purified (ammonium sulfate fractionation, anion-exchange, gel filtration)
B10: NylCp2-G^122Y^130A^36Q^263 mutant enzyme (D122G/H130Y/D36A/E263Q), alpha-beta heterodimer (enzyme, Arthrobacter)
chain 1: B1 chain 1 with D36A, D122G, H130Y, E263Q
chain 2: B1 chain 2
notes: NylCp2 alpha subunit with four substitutions; NylCp2 beta subunit; also called NylC-G^122Y^130A^36Q^263; source: E. coli JM109, purified (ammonium sulfate fractionation, anion-exchange, gel filtration)
B11: nylon hydrolase NylCA (wild type, Agromyces), active enzyme: alpha-beta heterodimer (enzyme)
chain 1: B1 chain 1 with G111S, D122G, H130Y, L137A, V225M
chain 2: B1 chain 2
notes: NylCA of Agromyces, alpha subunit; NylCA of Agromyces, beta subunit; source: E. coli clone (plasmid pSKRC4), purified to homogeneity as previously reported

The molecules below were run against nylon hydrolase NylCK (wild type, Kocuria), active enzyme: alpha-beta heterodimer (Kocuria) (assay: AUC; sedimentation velocity (40,000 rpm) and sedimentation equilibrium (14,000 rpm); each NylC enzyme 0.34 mg ml^-1 in phosphate buffer, 20 °C; self-association of the monomer units).

Row | Molecule | stoichiometry N
1 | nylon hydrolase NylCK (wild type, Kocuria), active enzyme: alpha-beta heterodimer (from UniProt Q79F77 1-266; Q79F77 267-355) | 4

Target: the molecule itself
Test: crystal structure; sitting-drop vapor diffusion, ammonium sulfate, 0.1 M HEPES pH 7.5, 0.2 M NaCl, 25% glycerol; space group C222_(1), two molecules (A/B dimer) in the asymmetric unit, tetramer by the crystallographic two-fold axis

Row | Molecule | stoichiometry N
2 | B1 | 4
3 | B2 | 4
4 | B3 | 4
5 | B4 | 4
6 | B5 | 4
7 | B6 | 4
8 | B7 | 4

Target: the molecule itself
Test: AUC; sedimentation velocity (40,000 rpm) and sedimentation equilibrium (14,000 rpm); each NylC enzyme 0.34 mg ml^-1 in phosphate buffer, 20 °C; self-association of the monomer units

Row | Molecule | stoichiometry N
9 | B8 | 2
10 | B9 | 3
11 | B1 | 3 and 2
12 | B10 | 4
13 | B11 | 4

Source: article PMC6021441, “Structural basis of the correct subunit assembly, aggregation, and intracellular degradation of nylon hydrolase” (Scientific Reports, 2018)
